From patent US11851495 (Boehringer Ingelheim, dated 2023)

Experiments:
[1] = biological target: TNF-related apoptosis-inducing ligand receptor 2 (TRAILR2) (human, UniProt O14763 56-440); test: cell-based or functional assay
cadherin-17 (CDH17) = cadherin-17 (CDH17) (human, UniProt Q12864 23-832); test: cell-based or functional assay

B1: CDH17A6/TR2v2-(IgG1 KO) (bispecific antibody)
heavy: not shown
light: DIVMTQSQKFMSTTVGDRVSITCKASQNVGTGVVWYQQRPGQSPKLLIYSPSNRYTGVPDRFTGSGSGTDFTLTITNIQSEDLADYFCQQYSTYPWTFGGGTKLEIKRTVAAPSVFIFPPSDEQLKSGTASVVCLLNNFYPREAKVQWKVDNALQSGNSQESVTEQDSKDSTYSLSSTLTLSKADYEKHKVYACEVTHQGLSSPVTKSFNRGEC
With B1 the “cell viability of Colo-205 cells, 24 h” value [1] was 0.01 nM and the “cell viability of Colo-205 cells, 24 h” value (cadherin-17 (CDH17)) was 0.01 nM.

B2: CDH17E2/TR2v2-(IgG1 KO) (bispecific antibody)
heavy: not shown
light: DIVMTQSQKFMSTTVGDRVNITCKASQNVGTAVAWYQQKPGQSPKLLIYSASNRYTGVPDRFTGSGSGTDFTLTITNMQSKDLADYFCQQYSSYPWTFGGGTKLEIKRTVAAPSVFIFPPSDEQLKSGTASVVCLLNNFYPREAKVQWKVDNALQSGNSQESVTEQDSKDSTYSLSSTLTLSKADYEKHKVYACEVTHQGLSSPVTKSFNRGEC
For B2, the “cell viability of Colo-205 cells, 24 h” value [1] was 0.01 nM and the “cell viability of Colo-205 cells, 24 h” value (cadherin-17 (CDH17)) was 0.01 nM.

B3: CDH17v1/TR2v1 (bispecific antibody, human IgG1, kappa)
heavy: not shown
light: DIVMSQSPSSLAVSVGEKVTMSCKSSQSLLHSSNQKNYLAWYQQKPGQSPKVLIYWASTRESGVPDRFTGSGSGTDFTLTITSVKSEDLAVYYCQQYYSYPWTFGGGTRLEIKRTVAAPSVFIFPPSDEQLKSGTASVVCLLNNFYPREAKVQWKVDNALQSGNSQESVTEQDSKDSTYSLSSTLTLSKADYEKHKVYACEVTHQGLSSPVTKSFNRGEC
In the case of B3, the “cell viability of Colo-205 cells, 24 h (CellTiter-Glo)” value [1] is reported as over 1000 fold and the “cell viability of Colo-205 cells, 24 h (CellTiter-Glo)” value (cadherin-17 (CDH17)) is reported as over 1000 fold.

B4: CDH17v1/TR2#2-(IgG1 KO) (bispecific antibody)
heavy: not shown
light: DIVMSQSPSSLAVSVGEKVTMSCKSSQSLLHSSNQKNYLAWYQQKPGQSPKVLIYWASTRESGVPDRFTGSGSGTDFTLTITSVKSEDLAVYYCQQYYSYPWTFGGGTRLEIKRTVAAPSVFIFPPSDEQLKSGTASVVCLLNNFYPREAKVQWKVDNALQSGNSQESVTEQDSKDSTYSLSSTLTLSKADYEKHKVYACEVTHQGLSSPVTKSFNRGEC
For B4, the “cell viability of Colo-205 cells, 24 h” value [1] was 0.01 nM and the “cell viability of Colo-205 cells, 24 h” value (cadherin-17 (CDH17)) was 0.01 nM.

B5: CDH17v1/TR2#8-(IgG1 KO) (bispecific antibody)
heavy: not shown
light: DIVMSQSPSSLAVSVGEKVTMSCKSSQSLLHSSNQKNYLAWYQQKPGQSPKVLIYWASTRESGVPDRFTGSGSGTDFTLTITSVKSEDLAVYYCQQYYSYPWTFGGGTRLEIKRTVAAPSVFIFPPSDEQLKSGTASVVCLLNNFYPREAKVQWKVDNALQSGNSQESVTEQDSKDSTYSLSSTLTLSKADYEKHKVYACEVTHQGLSSPVTKSFNRGEC
B5 was tested, and the “cell viability of Colo-205 cells, 24 h” value [1] was 0.01 nM and the “cell viability of Colo-205 cells, 24 h” value (cadherin-17 (CDH17)) was 0.01 nM.

B6: CDH17v1/TR2#3-(IgG1 KO) (bispecific antibody)
heavy: not shown
light: DIVMSQSPSSLAVSVGEKVTMSCKSSQSLLHSSNQKNYLAWYQQKPGQSPKVLIYWASTRESGVPDRFTGSGSGTDFTLTITSVKSEDLAVYYCQQYYSYPWTFGGGTRLEIKRTVAAPSVFIFPPSDEQLKSGTASVVCLLNNFYPREAKVQWKVDNALQSGNSQESVTEQDSKDSTYSLSSTLTLSKADYEKHKVYACEVTHQGLSSPVTKSFNRGEC
For B6, the “cell viability of Colo-205 cells, 24 h” value [1] was 0.01 nM and the “cell viability of Colo-205 cells, 24 h” value (cadherin-17 (CDH17)) was 0.01 nM.

B7: CDH17v1/TR2#1-(IgG1 KO) (bispecific antibody)
heavy: not shown
light: DIVMSQSPSSLAVSVGEKVTMSCKSSQSLLHSSNQKNYLAWYQQKPGQSPKVLIYWASTRESGVPDRFTGSGSGTDFTLTITSVKSEDLAVYYCQQYYSYPWTFGGGTRLEIKRTVAAPSVFIFPPSDEQLKSGTASVVCLLNNFYPREAKVQWKVDNALQSGNSQESVTEQDSKDSTYSLSSTLTLSKADYEKHKVYACEVTHQGLSSPVTKSFNRGEC
B7 was tested, and the “cell viability of Colo-205 cells, 24 h” value [1] was 0.01 nM and the “cell viability of Colo-205 cells, 24 h” value (cadherin-17 (CDH17)) was 0.01 nM.

B8: CDH17v1/TR2v1-(IgG1 KO) (bispecific antibody)
heavy: not shown
light: DIVMSQSPSSLAVSVGEKVTMSCKSSQSLLHSSNQKNYLAWYQQKPGQSPKVLIYWASTRESGVPDRFTGSGSGTDFTLTITSVKSEDLAVYYCQQYYSYPWTFGGGTRLEIKRTVAAPSVFIFPPSDEQLKSGTASVVCLLNNFYPREAKVQWKVDNALQSGNSQESVTEQDSKDSTYSLSSTLTLSKADYEKHKVYACEVTHQGLSSPVTKSFNRGEC
With B8 the “cell viability of Colo-205 cells, 24 h” value [1] was 0.01 nM and the “cell viability of Colo-205 cells, 24 h” value (cadherin-17 (CDH17)) was 0.01 nM.

B9: CDH17v1/TR2#10-(IgG1 KO) (bispecific antibody)
heavy: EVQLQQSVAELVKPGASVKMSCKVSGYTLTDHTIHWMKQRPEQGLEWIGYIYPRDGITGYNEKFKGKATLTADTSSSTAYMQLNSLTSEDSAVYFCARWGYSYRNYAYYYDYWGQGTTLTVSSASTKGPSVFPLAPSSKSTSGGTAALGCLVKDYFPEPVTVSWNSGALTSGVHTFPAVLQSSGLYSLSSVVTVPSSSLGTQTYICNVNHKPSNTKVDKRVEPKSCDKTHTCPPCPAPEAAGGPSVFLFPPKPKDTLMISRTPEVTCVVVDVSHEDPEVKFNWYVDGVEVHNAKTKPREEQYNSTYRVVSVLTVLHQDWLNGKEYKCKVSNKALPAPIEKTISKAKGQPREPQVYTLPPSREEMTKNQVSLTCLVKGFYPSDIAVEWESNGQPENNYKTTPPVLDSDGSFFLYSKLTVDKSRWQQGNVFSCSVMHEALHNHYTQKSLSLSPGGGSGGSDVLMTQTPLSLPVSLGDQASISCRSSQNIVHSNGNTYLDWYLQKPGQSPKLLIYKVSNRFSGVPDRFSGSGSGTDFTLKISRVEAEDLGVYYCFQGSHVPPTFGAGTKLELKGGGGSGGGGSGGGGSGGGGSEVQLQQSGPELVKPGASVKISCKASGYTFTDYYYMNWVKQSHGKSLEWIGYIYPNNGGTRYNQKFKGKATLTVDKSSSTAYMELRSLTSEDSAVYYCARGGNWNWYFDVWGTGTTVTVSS
light: DIVMSQSPSSLAVSVGEKVTMSCKSSQSLLHSSNQKNYLAWYQQKPGQSPKVLIYWASTRESGVPDRFTGSGSGTDFTLTITSVKSEDLAVYYCQQYYSYPWTFGGGTRLEIKRTVAAPSVFIFPPSDEQLKSGTASVVCLLNNFYPREAKVQWKVDNALQSGNSQESVTEQDSKDSTYSLSSTLTLSKADYEKHKVYACEVTHQGLSSPVTKSFNRGEC
With B9 the “cell viability of Colo-205 cells, 24 h” value [1] was 0.01 nM and the “cell viability of Colo-205 cells, 24 h” value (cadherin-17 (CDH17)) was 0.01 nM.

B10: CDH17H2/TR2v2-(IgG1 KO) (bispecific antibody)
heavy: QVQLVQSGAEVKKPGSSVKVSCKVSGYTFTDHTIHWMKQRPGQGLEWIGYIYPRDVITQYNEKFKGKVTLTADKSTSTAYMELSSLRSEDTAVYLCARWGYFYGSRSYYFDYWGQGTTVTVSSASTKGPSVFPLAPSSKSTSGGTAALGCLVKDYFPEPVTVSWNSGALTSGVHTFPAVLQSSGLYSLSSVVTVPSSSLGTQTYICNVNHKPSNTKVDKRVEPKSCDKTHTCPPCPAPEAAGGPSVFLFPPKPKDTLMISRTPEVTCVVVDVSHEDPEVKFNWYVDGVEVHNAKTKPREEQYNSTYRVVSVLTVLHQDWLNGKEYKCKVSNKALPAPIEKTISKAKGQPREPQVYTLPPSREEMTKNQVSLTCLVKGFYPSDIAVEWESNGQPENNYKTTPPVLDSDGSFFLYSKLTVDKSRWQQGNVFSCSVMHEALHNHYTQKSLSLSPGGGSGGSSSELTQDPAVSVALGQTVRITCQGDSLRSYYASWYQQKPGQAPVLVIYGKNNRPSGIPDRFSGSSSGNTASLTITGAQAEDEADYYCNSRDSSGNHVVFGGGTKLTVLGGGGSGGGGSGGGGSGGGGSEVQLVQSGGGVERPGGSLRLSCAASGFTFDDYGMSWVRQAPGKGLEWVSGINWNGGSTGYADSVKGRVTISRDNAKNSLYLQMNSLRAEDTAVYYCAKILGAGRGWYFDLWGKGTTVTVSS
light: DIQMTQSQSSLSASVGDRVGITCKASQNVGTAVAWYQQKPGKAPKLLIYSASNRYTGVPSRFSGSGSGTDFTLTISSLQPKDFATYFCQQYSSYPWTFGQGTKLEIKRTVAAPSVFIFPPSDEQLKSGTASVVCLLNNFYPREAKVQWKVDNALQSGNSQESVTEQDSKDSTYSLSSTLTLSKADYEKHKVYACEVTHQGLSSPVTKSFNRGEC
In the case of B10, the “cell viability of Colo-205 cells, 24 h” value [1] is reported as 0.01 nM, the “concentration needed for an effect on viability of HepG2 cells (CDH17 negative), 72 h” value (shortened to “concentration needed for an effect”) [1] is reported as over 1 nM and the “cell viability of Colo-205 cells, 24 h” value (cadherin-17 (CDH17)) is reported as 0.01 nM.

B11: CDH17H2/TR2v6-(IgG1 KO) (bispecific antibody)
heavy: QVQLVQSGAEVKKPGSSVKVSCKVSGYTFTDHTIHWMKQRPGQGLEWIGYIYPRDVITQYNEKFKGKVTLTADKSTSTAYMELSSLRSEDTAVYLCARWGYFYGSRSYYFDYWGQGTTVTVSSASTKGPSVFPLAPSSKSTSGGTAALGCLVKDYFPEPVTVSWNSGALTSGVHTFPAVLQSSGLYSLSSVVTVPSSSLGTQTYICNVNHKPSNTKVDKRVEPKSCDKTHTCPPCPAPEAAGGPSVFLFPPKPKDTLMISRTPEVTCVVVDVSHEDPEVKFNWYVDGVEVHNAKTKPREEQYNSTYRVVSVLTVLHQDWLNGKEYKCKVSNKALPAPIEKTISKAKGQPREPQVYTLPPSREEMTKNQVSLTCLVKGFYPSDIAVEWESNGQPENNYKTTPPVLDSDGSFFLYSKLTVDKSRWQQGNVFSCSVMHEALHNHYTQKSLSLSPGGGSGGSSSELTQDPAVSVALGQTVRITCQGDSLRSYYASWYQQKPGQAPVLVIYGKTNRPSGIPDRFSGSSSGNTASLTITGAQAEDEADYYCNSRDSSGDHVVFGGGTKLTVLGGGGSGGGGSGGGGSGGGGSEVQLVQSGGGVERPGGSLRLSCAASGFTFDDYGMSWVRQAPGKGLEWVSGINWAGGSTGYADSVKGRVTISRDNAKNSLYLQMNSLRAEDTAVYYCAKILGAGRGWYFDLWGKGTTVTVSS
light: DIQMTQSQSSLSASVGDRVGITCKASQNVGTAVAWYQQKPGKAPKLLIYSASNRYTGVPSRFSGSGSGTDFTLTISSLQPKDFATYFCQQYSSYPWTFGQGTKLEIKRTVAAPSVFIFPPSDEQLKSGTASVVCLLNNFYPREAKVQWKVDNALQSGNSQESVTEQDSKDSTYSLSSTLTLSKADYEKHKVYACEVTHQGLSSPVTKSFNRGEC
In the case of B11, the “cell viability of Colo-205 cells, 24 h” value [1] is reported as 0.01 nM, the “concentration needed for an effect” value [1] is reported as over 1 nM and the “cell viability of Colo-205 cells, 24 h” value (cadherin-17 (CDH17)) is reported as 0.01 nM.

B12: CDH17H2/TR2v3-(IgG1 KO) (bispecific antibody)
heavy: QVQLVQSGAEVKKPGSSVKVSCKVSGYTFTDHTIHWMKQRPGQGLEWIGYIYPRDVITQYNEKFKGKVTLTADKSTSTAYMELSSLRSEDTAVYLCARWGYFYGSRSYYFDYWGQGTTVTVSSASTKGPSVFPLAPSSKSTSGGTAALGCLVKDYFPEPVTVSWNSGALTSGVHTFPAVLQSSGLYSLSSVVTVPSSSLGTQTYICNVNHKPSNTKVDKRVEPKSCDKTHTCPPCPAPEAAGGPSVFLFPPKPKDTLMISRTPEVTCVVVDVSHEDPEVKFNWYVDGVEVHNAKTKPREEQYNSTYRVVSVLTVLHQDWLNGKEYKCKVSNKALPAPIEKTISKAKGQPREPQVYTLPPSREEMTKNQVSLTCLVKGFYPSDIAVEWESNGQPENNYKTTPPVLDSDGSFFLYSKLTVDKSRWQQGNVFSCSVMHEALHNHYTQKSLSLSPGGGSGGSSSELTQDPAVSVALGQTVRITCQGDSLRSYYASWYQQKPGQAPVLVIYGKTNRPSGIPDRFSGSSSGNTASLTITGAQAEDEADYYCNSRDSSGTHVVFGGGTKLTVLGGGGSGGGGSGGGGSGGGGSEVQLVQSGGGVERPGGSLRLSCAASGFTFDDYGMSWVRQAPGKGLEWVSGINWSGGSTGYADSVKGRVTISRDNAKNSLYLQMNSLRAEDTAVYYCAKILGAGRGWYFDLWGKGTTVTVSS
light: DIQMTQSQSSLSASVGDRVGITCKASQNVGTAVAWYQQKPGKAPKLLIYSASNRYTGVPSRFSGSGSGTDFTLTISSLQPKDFATYFCQQYSSYPWTFGQGTKLEIKRTVAAPSVFIFPPSDEQLKSGTASVVCLLNNFYPREAKVQWKVDNALQSGNSQESVTEQDSKDSTYSLSSTLTLSKADYEKHKVYACEVTHQGLSSPVTKSFNRGEC
With B12 the “cell viability of Colo-205 cells, 24 h” value [1] was 0.01 nM, the “concentration needed for an effect” value [1] was over 1 nM and the “cell viability of Colo-205 cells, 24 h” value (cadherin-17 (CDH17)) was 0.01 nM.

B13: CDH17H2/TR2v4-(IgG1 KO) (bispecific antibody)
heavy: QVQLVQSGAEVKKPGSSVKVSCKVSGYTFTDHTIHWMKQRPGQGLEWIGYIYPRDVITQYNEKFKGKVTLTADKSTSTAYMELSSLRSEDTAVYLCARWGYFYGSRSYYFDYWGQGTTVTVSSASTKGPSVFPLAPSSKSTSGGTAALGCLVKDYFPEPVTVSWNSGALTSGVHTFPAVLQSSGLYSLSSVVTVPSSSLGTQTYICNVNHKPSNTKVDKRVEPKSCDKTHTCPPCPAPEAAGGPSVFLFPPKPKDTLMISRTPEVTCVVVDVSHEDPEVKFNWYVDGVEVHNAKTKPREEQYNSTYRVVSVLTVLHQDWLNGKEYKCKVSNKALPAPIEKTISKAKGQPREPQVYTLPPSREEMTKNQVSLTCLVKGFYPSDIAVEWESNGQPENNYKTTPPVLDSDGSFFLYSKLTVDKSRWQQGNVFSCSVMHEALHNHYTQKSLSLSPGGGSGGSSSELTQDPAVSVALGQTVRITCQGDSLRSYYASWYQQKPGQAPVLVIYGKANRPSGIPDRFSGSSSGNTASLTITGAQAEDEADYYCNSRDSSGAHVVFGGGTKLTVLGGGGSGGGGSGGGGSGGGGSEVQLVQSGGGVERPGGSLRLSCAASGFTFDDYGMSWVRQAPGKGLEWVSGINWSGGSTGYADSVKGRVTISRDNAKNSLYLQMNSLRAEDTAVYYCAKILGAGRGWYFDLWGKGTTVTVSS
light: DIQMTQSQSSLSASVGDRVGITCKASQNVGTAVAWYQQKPGKAPKLLIYSASNRYTGVPSRFSGSGSGTDFTLTISSLQPKDFATYFCQQYSSYPWTFGQGTKLEIKRTVAAPSVFIFPPSDEQLKSGTASVVCLLNNFYPREAKVQWKVDNALQSGNSQESVTEQDSKDSTYSLSSTLTLSKADYEKHKVYACEVTHQGLSSPVTKSFNRGEC
For B13, the “cell viability of Colo-205 cells, 24 h” value [1] was 0.01 nM, the “concentration needed for an effect” value [1] was over 1 nM and the “cell viability of Colo-205 cells, 24 h” value (cadherin-17 (CDH17)) was 0.01 nM.

B14: CDH17H2/TR2v5-(IgG1 KO) (bispecific antibody)
heavy: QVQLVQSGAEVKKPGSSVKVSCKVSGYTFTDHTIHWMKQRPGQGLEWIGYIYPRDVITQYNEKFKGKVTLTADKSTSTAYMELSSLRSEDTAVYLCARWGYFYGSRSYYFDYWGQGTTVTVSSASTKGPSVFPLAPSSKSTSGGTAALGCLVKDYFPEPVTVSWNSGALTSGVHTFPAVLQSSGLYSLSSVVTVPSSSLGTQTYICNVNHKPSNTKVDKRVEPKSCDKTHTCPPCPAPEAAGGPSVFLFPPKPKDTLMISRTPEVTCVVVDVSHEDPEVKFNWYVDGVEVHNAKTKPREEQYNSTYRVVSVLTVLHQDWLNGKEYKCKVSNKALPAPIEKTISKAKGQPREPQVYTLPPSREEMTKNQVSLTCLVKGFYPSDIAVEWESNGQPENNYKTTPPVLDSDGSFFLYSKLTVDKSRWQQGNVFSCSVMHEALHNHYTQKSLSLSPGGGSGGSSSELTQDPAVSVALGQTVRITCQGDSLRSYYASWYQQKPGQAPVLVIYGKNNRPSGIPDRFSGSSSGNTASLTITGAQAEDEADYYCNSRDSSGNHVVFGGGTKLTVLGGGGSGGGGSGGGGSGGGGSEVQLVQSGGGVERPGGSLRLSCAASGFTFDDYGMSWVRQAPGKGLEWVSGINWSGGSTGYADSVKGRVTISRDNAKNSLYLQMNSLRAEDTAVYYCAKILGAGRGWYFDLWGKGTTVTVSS
light: DIQMTQSQSSLSASVGDRVGITCKASQNVGTAVAWYQQKPGKAPKLLIYSASNRYTGVPSRFSGSGSGTDFTLTISSLQPKDFATYFCQQYSSYPWTFGQGTKLEIKRTVAAPSVFIFPPSDEQLKSGTASVVCLLNNFYPREAKVQWKVDNALQSGNSQESVTEQDSKDSTYSLSSTLTLSKADYEKHKVYACEVTHQGLSSPVTKSFNRGEC
In the case of B14, the “cell viability of Colo-205 cells, 24 h” value [1] is reported as 0.01 nM, the “concentration needed for an effect” value [1] is reported as over 1 nM and the “cell viability of Colo-205 cells, 24 h” value (cadherin-17 (CDH17)) is reported as 0.01 nM.

B15: CDH17H2/TR2v7-(IgG1 KO) (bispecific antibody)
heavy: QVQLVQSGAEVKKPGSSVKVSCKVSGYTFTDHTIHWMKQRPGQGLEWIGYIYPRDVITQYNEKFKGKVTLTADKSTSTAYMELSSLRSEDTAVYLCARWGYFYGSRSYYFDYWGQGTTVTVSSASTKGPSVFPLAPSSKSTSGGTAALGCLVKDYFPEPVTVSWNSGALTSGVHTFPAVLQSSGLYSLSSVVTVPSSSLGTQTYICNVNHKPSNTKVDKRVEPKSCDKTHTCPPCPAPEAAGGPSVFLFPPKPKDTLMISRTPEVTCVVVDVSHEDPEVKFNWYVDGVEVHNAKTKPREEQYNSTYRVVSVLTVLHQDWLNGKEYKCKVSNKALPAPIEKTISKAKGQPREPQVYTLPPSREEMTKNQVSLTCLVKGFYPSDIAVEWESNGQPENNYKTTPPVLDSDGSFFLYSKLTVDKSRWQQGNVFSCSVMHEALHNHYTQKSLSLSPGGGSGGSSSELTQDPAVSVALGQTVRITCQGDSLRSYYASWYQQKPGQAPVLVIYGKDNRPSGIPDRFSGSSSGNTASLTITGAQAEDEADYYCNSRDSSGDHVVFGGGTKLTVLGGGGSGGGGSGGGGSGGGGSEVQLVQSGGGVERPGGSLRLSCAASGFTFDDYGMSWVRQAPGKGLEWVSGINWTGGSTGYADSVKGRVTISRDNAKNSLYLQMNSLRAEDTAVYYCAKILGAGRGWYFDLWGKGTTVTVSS
light: DIQMTQSQSSLSASVGDRVGITCKASQNVGTAVAWYQQKPGKAPKLLIYSASNRYTGVPSRFSGSGSGTDFTLTISSLQPKDFATYFCQQYSSYPWTFGQGTKLEIKRTVAAPSVFIFPPSDEQLKSGTASVVCLLNNFYPREAKVQWKVDNALQSGNSQESVTEQDSKDSTYSLSSTLTLSKADYEKHKVYACEVTHQGLSSPVTKSFNRGEC
B15 was tested, and the “cell viability of Colo-205 cells, 24 h” value [1] was 0.01 nM, the “concentration needed for an effect” value [1] was over 1 nM and the “cell viability of Colo-205 cells, 24 h” value (cadherin-17 (CDH17)) was 0.01 nM.

B16: CDH17E9/TR2v2-(IgG1 KO) (bispecific antibody)
heavy: not shown
light: DIVMTQSQTFMSTTVGDRVSITCKASQNVGTALAWYQQKPRQSPKLLIYSASNRFTGVPDRFTGSGSGTDFTLTISNMRSEDLADYVCQQYSTYPLTFGSGTKLEIRRTVAAPSVFIFPPSDEQLKSGTASVVCLLNNFYPREAKVQWKVDNALQSGNSQESVTEQDSKDSTYSLSSTLTLSKADYEKHKVYACEVTHQGLSSPVTKSFNRGEC
In the case of B16, the “cell viability of Colo-205 cells, 24 h” value [1] is reported as 0.01 nM and the “cell viability of Colo-205 cells, 24 h” value (cadherin-17 (CDH17)) is reported as 0.01 nM.

B17: anti-TRAILR2 antibody (anti-TR2v2) (antibody, V domains shown)
VH: EVQLVQSGGGVERPGGSLRLSCAASGFTFDDYGMSWVRQAPGKGLEWVSGINWNGGSTGYADSVKGRVTISRDNAKNSLYLQMNSLRAEDTAVYYCAKILGAGRGWYFDLWGKGTTVTVSS
VL: SSELTQDPAVSVALGQTVRITCQGDSLRSYYASWYQQKPGQAPVLVIYGKNNRPSGIPDRFSGSSSGNTASLTITGAQAEDEADYYCNSRDSSGNHVVFGGGTKLTVL
B17 was tested, and the “cell viability of Colo-205 cells, 24 h” value [1] was 0.01 nM.
